In patent US20240409645A1 (DUALYX, published 2024):
Read-outs that look alike come from different tables or passages of the source. Values belong to the binder of their own block, whether it stands above or below them.

Experiments:
[1] = target: T1, human IL-2 receptor (IL-2Rα/IL-2Rβ/γc) (human, UniProt P01589 22-272; P14784 27-551; P31785 23-369); assay: cell-based or functional assay
T1 sequence 1: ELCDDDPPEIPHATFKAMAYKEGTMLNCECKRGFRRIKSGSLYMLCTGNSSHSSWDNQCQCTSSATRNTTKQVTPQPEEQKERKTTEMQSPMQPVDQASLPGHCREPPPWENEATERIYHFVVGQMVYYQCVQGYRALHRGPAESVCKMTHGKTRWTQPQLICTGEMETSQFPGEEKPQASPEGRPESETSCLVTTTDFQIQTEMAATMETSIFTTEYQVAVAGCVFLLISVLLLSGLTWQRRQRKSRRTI
T1 sequence 2: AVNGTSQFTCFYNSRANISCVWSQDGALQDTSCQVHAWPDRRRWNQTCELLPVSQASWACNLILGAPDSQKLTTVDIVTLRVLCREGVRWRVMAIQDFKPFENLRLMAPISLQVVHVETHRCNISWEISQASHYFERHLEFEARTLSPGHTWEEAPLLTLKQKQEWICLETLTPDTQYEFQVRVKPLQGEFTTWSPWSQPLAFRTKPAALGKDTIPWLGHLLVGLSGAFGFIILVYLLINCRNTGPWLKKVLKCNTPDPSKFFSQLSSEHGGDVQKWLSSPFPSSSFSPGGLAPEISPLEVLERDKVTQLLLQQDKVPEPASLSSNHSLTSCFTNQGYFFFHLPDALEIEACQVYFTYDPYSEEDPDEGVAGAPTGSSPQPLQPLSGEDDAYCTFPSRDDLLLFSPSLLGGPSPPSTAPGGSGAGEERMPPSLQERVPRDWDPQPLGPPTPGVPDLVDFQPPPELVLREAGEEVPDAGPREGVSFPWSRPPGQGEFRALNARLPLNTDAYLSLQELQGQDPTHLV
T1 sequence 3: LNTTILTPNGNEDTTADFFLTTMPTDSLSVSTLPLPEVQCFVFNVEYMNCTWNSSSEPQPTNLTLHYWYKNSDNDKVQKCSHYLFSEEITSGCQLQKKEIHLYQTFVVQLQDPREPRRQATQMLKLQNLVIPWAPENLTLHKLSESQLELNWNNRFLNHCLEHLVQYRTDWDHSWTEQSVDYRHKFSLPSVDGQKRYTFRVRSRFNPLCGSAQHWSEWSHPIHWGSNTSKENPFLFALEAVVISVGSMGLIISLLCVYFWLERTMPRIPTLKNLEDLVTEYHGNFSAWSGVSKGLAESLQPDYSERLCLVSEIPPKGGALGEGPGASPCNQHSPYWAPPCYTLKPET

[2] = target: T1, human IL-2 receptor (IL-2Rα/IL-2Rβ/γc); assay: cell-based or functional assay; remark: listed apart in the source

EC50 (nM) pSTAT5, NK, human PBMCs [1]: 2.59 nM | EC50 (nM) pSTAT5, Treg, human PBMCs [1]: 0.0118 nM | Fold Max signal (% pSTAT5+) Treg/NK [1]: 5 fold | Max signal (% pSTAT5+), NK [1]: 20 % pSTAT5+ | Max signal (% pSTAT5+), Treg [1]: 95 % pSTAT5+ | fold EC50 NK/Treg [1]: 220 fold | EC50 (nM) pSTAT5, NK, human PBMCs [2]: 1.14 nM | EC50 (nM) pSTAT5, Treg, human PBMCs [2]: 0.00195 nM | Fold Max signal (% pSTAT5+) Treg/NK [2]: 8 fold | Max signal (% pSTAT5+), NK [2]: 8.26 % pSTAT5+ | Max signal (% pSTAT5+), Treg [2]: 64.1 % pSTAT5+ | fold EC50 NK/Treg [2]: 583 fold
B1: TsVHH-48 (other)
chain 1: QVQLVESGGGLVQPGGSLRLSCATSGFTFRNNFMSWVRQAPGKGLEWVSTISYGGESTTYAESVKGRFTISRDNAKNTLYLQMNNLKPEDTAVYYCAKATSYDSIRSGSRGQGTQVTVSSDKTHTCPPCPAPEAAGGPSVFLFPPKPKDTLMISRTPEVTCVVVDVSHEDPEVKFNWYVDGVEVHNAKTKPREEQYNSTYRVVSVLTVLHQDWLNGKEYKCKVSNKALGAPIEKTISKAKGQPREPQVYTLPPSRDELTKNQVSLTCLVKGFYPSDIAVEWESNGQPENNYKTTPPVLDSDGSFFLYSRLTVDKSRWQQGNVFSCSVMHEALHNHYTQKSLSLSPGK
chain 2: QVQLVESGGGLVQAGGSLTLSCAAPGRTFGTDVVGWFRQAPGKEREFVASISRSGDGIYYDDSVKGRFTISRNNAWNTVNLQMNSLKVEDTAVYYCAAGDGWSTYDYWGQGTQVTVSSGGGGSGGGGSGGGGSGSEVQLVESGGGLVQTGGSLRLSCAASGGTFSRDAMAWFRQVPGKEREFVALISWSGATTNYADSVKGRFAISRDNGKNTVYLQMNRLKPADTAIYYCAADRRPMGSRSYFEPTEYDDWGQGTQVTVSSGGGGSGGGGSGGGGSTVSSDKTHTCPPCPAPEAAGGPSVFLFPPKPKDTLMISRTPEVTCVVVDVSHEDPEVKFNWYVDGVEVHNAKTKPREEQYNSTYRVVSVLTVLHQDWLNGKEYKCKVSNKALGAPIEKTISKAKGQPREPQVYTLPPSRDELTKNQVSLTCLVKGFYPSDIAVEWESNGQPENNYKTTPPVLDSDGSFLLYSKLTVDKSRWQQGNVFSCSVMHEALHNHYTQKSLSLSPGK

EC50 (nM) pSTAT5, NK, human PBMCs [2]: 0.307 nM | EC50 (nM) pSTAT5, Treg, human PBMCs [2]: < 0.1 pM | Fold Max signal (% pSTAT5+) Treg/NK [2]: 5 fold | Max signal (% pSTAT5+), NK [2]: 14.5 % pSTAT5+ | Max signal (% pSTAT5+), Treg [2]: 67.7 % pSTAT5+ | fold EC50 NK/Treg [2]: > 3070 fold
B2: DC00091 (other)
chain 1: QLQLVESGGGLVQAGDSLRLSCAASGFNFGWHAMGWFRQAPGKEREFVATITWTGRDTYYADSVRGRFTISKDNAKDTLFLQMNSLRPDDTGVYYCAKARERATWAYSEDDCDYWGQGTQVTVSSDKTHTCPPCPAPEAAGGPSVFLFPPKPKDTLMISRTPEVTCVVVDVSHEDPEVKFNWYVDGVEVHNAKTKPREEQYNSTYRVVSVLTVLHQDWLNGKEYKCKVSNKALGAPIEKTISKAKGQPREPQVYTLPPSRDELTKNQVSLTCLVKGFYPSDIAVEWESNGQPENNYKTTPPVLDSDGSFLLYSKLTVDKSRWQQGNVFSCSVMHEALHNHYTQKSLSLSPGK
chain 2: QVQLVESGGGLVQPGGSLRLSCATSGFTFRNNFMSWVRQAPGKGLEWVSTISYGGESTTYAESVKGRFTISRDNAKNTLYLQMNNLKPEDTAVYYCAKATSYDSIRSGSRGQGTQVTVSSGGGGSGGGGSGGGGSQVQLVESGGGLVQAGGSLTLSCAAPGRTFGTDVVGWFRQAPGKEREFVASISRSGDGIYYDDSVKGRFTISRNNAWNTVNLQMNSLKVEDTAVYYCAAGDGWSTYDYWGQGTQVTVSSGGGGSGGGGSGGGGSEVQLVESGGGLVQTGGSLRLSCAASGGTFSRDAMAWFRQVPGKEREFVALISWSGATTNYADSVKGRFAISRDNGKNTVYLQMNRLKPADTAIYYCAADRRPMGSRSYFEPTEYDDWGQGTQVTVSSGGGGSGGGGSGGGGSDKTHTCPPCPAPEAAGGPSVFLFPPKPKDTLMISRTPEVTCVVVDVSHEDPEVKFNWYVDGVEVHNAKTKPREEQYNSTYRVVSVLTVLHQDWLNGKEYKCKVSNKALGAPIEKTISKAKGQPREPQVYTLPPSRDELTKNQVSLTCLVKGFYPSDIAVEWESNGQPENNYKTTPPVLDSDGSFFLYSRLTVDKSRWQQGNVFSCSVMHEALHNHYTQKSLSLSPGK

EC50 (nM) pSTAT5, NK, human PBMCs [2]: 0.0752 nM | EC50 (nM) pSTAT5, Treg, human PBMCs [2]: 0.735 nM | Fold Max signal (% pSTAT5+) Treg/NK [2]: 6 fold | Max signal (% pSTAT5+), NK [2]: 11.4 % pSTAT5+ | Max signal (% pSTAT5+), Treg [2]: 66.7 % pSTAT5+
B3: DC00093 (other)
chain 1: B2 chain 1
chain 2: QVQLVESGGGLVQAGGSLTLSCAAPGRTFGTDVVGWFRQAPGKEREFVASISRSGDGIYYDDSVKGRFTISRNNAWNTVNLQMNSLKVEDTAVYYCAAGDGWSTYDYWGQGTQVTVSSGGGGSGGGGSGGGGSEVQLVESGGGLVQTGGSLRLSCAASGGTFSRDAMAWFRQVPGKEREFVALISWSGATTNYADSVKGRFAISRDNGKNTVYLQMNRLKPADTAIYYCAADRRPMGSRSYFEPTEYDDWGQGTQVTVSSGGGGSGGGGSGGGGSQVQLVESGGGLVQPGGSLRLSCATSGFTFRNNFMSWVRQAPGKGLEWVSTISYGGESTTYAESVKGRFTISRDNAKNTLYLQMNNLKPEDTAVYYCAKATSYDSIRSGSRGQGTQVTVSSDKTHTCPPCPAPEAAGGPSVFLFPPKPKDTLMISRTPEVTCVVVDVSHEDPEVKFNWYVDGVEVHNAKTKPREEQYNSTYRVVSVLTVLHQDWLNGKEYKCKVSNKALGAPIEKTISKAKGQPREPQVYTLPPSRDELTKNQVSLTCLVKGFYPSDIAVEWESNGQPENNYKTTPPVLDSDGSFFLYSRLTVDKSRWQQGNVFSCSVMHEALHNHYTQKSLSLSPGK

EC50 (nM) pSTAT5, Treg, human PBMCs [2]: < 0.1 pM | Fold Max signal (% pSTAT5+) Treg/NK [2]: 6 fold | Max signal (% pSTAT5+), NK [2]: 4.82 % pSTAT5+ | Max signal (% pSTAT5+), Treg [2]: 26.7 % pSTAT5+
B4: DC00092 (other)
chain 1: B2 chain 1
chain 2: QVQLVESGGGLVQPGGSLRLSCATSGFTFRNNFMSWVRQAPGKGLEWVSTISYGGESTTYAESVKGRFTISRDNAKNTLYLQMNNLKPEDTAVYYCAKATSYDSIRSGSRGQGTQVTVSSGGGGSGGGGSGGGGSEVQLVESGGGLVQTGGSLRLSCAASGGTFSRDAMAWFRQVPGKEREFVALISWSGATTNYADSVKGRFAISRDNGKNTVYLQMNRLKPADTAIYYCAADRRPMGSRSYFEPTEYDDWGQGTQVTVSSGGGGSGGGGSGGGGSQVQLVESGGGLVQAGGSLTLSCAAPGRTFGTDVVGWFRQAPGKEREFVASISRSGDGIYYDDSVKGRFTISRNNAWNTVNLQMNSLKVEDTAVYYCAAGDGWSTYDYWGQGTQVTVSSGGGGSGGGGSGGGGSDKTHTCPPCPAPEAAGGPSVFLFPPKPKDTLMISRTPEVTCVVVDVSHEDPEVKFNWYVDGVEVHNAKTKPREEQYNSTYRVVSVLTVLHQDWLNGKEYKCKVSNKALGAPIEKTISKAKGQPREPQVYTLPPSRDELTKNQVSLTCLVKGFYPSDIAVEWESNGQPENNYKTTPPVLDSDGSFFLYSRLTVDKSRWQQGNVFSCSVMHEALHNHYTQKSLSLSPGK

EC50 (nM) pSTAT5, NK, human PBMCs [1]: 0.645 nM | EC50 (nM) pSTAT5, Treg, human PBMCs [1]: 0.00334 nM | Fold Max signal (% pSTAT5+) Treg/NK [1]: 7 fold | Max signal (% pSTAT5+), NK [1]: 8 % pSTAT5+ | Max signal (% pSTAT5+), Treg [1]: 56 % pSTAT5+ | fold EC50 NK/Treg [1]: 193 fold | EC50 (nM) pSTAT5, NK, human PBMCs [2]: 0.769 nM | EC50 (nM) pSTAT5, Treg, human PBMCs [2]: 0.00215 nM | Fold Max signal (% pSTAT5+) Treg/NK [2]: 8 fold | Max signal (% pSTAT5+), NK [2]: 2.49 % pSTAT5+ | Max signal (% pSTAT5+), Treg [2]: 19.8 % pSTAT5+ | fold EC50 NK/Treg [2]: 358 fold
B5: DC00060 (other)
chain 1: QVQLVESGGGLVQPGGSLRLSCATSGFTFRNNFMSWVRQAPGKGLEWVSTISYGGESTTYAESVKGRFTISRDNAKNTLYLQMNNLKPEDTAVYYCAKATSYDSIRSGSRGQGTQVTVSSGGGGSGGGGSGGGGSEVQLVESGGGLVQTGGSLRLSCAASGGTFSRDAMAWFRQVPGKEREFVALISWSGATTNYADSVKGRFAISRDNGKNTVYLQMNRLKPADTAIYYCAADRRPMGSRSYFEPTEYDDWGQGTQVTVSSGGGGSGGGGSGGGGSDKTHTCPPCPAPEAAGGPSVFLFPPKPKDTLMISRTPEVTCVVVDVSHEDPEVKFNWYVDGVEVHNAKTKPREEQYNSTYRVVSVLTVLHQDWLNGKEYKCKVSNKALGAPIEKTISKAKGQPREPQVYTLPPSRDELTKNQVSLTCLVKGFYPSDIAVEWESNGQPENNYKTTPPVLDSDGSFLLYSKLTVDKSRWQQGNVFSCSVMHEALHNHYTQKSLSLSPGK
chain 2: QVQLVESGGGLVQPGGSLRLSCATSGFTFRNNFMSWVRQAPGKGLEWVSTISYGGESTTYAESVKGRFTISRDNAKNTLYLQMNNLKPEDTAVYYCAKATSYDSIRSGSRGQGTQVTVSSGGGGSGGGGSGGGGSQVQLVESGGGLVQAGGSLTLSCAAPGRTFGTDVVGWFRQAPGKEREFVASISRSGDGIYYDDSVKGRFTISRNNAWNTVNLQMNSLKVEDTAVYYCAAGDGWSTYDYWGQGTQVTVSSGGGGSGGGGSGGGGSDKTHTCPPCPAPEAAGGPSVFLFPPKPKDTLMISRTPEVTCVVVDVSHEDPEVKFNWYVDGVEVHNAKTKPREEQYNSTYRVVSVLTVLHQDWLNGKEYKCKVSNKALGAPIEKTISKAKGQPREPQVYTLPPSRDELTKNQVSLTCLVKGFYPSDIAVEWESNGQPENNYKTTPPVLDSDGSFFLYSRLTVDKSRWQQGNVFSCSVMHEALHNHYTQKSLSLSPGK
